Tested on: Escherichia coli TOP10
Test: shrunken log2 fold change of peptide-encoding DNA abundance (4.5 h post-induction vs induction); higher = less antimicrobial activity (less host growth inhibition)
Conditions: time post-induction: 4.5 h; library: site-saturation at positions 5, 18, 19, 20
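Also: peptides expressed intracellularly from a pBAD plasmid library in pooled LB shake-flask culture, induced with 0.3% L-arabinose, DNA abundance read by NGS, three biological replicates, DESeq2 with apeglm shrinkage.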

| Sequence | shrunken log2 fold change |
| --- | --- |
| RRIRGRPPRLPRPRPRPNRHPRP | 0.231 |
| RRIRFRPPRLPRPRPRPLSIPRP | -0.203 |
| RRIRQRPPRLPRPRPRPRSMPRP | 0.33 |
| RRIRQRPPRLPRPRPRPSWHPRP | -0.155 |
| RRIRERPPRLPRPRPRPEAEPRP | 0.315 |
| RRIRYRPPRLPRPRPRPSSSPRP | -0.166 |
| RRIRNRPPRLPRPRPRPSQHPRP | -0.0437 |
| RRIRVRPPRLPRPRPRPKAFPRP | 0.00341 |
| RRIRIRPPRLPRPRPRPQEPPRP | -0.04 |
| RRIRVRPPRLPRPRPRPENYPRP | -0.0159 |
| RRIRPRPPRLPRPRPRPRWPPRP | 0.616 |
| RRIRTRPPRLPRPRPRPWDHPRP | -0.155 |
| RRIRFRPPRLPRPRPRPCILPRP | -0.0567 |
| RRIRVRPPRLPRPRPRPMSYPRP | -0.0627 |
| RRIRWRPPRLPRPRPRPEQCPRP | -0.0195 |
| RRIRTRPPRLPRPRPRPDEKPRP | 0.0325 |
| RRIRNRPPRLPRPRPRPVLHPRP | -0.00264 |
| RRIRTRPPRLPRPRPRPQLNPRP | -0.33 |
| RRIRCRPPRLPRPRPRPRVWPRP | 0.747 |
| RRIRQRPPRLPRPRPRPYLHPRP | -0.117 |
| RRIRSRPPRLPRPRPRPYNAPRP | -0.254 |
| RRIRERPPRLPRPRPRPPHGPRP | 0.19 |
| RRIRQRPPRLPRPRPRPCQTPRP | 0.00707 |
| RRIRKRPPRLPRPRPRPCIYPRP | -0.198 |
| RRIRSRPPRLPRPRPRPFHQPRP | -0.418 |

| Sequence | shrunken log2 fold change |
| --- | --- |
| RRIRGRPPRLPRPRPRPTKFPRP | 0.458 |
| RRIRPRPPRLPRPRPRPHCVPRP | -0.0495 |
| RRIRCRPPRLPRPRPRPSYQPRP | -0.923 |
| RRIRSRPPRLPRPRPRPMSGPRP | 0.131 |
| RRIRHRPPRLPRPRPRPNRHPRP | -0.281 |
| RRIRARPPRLPRPRPRPWHCPRP | -0.16 |
| RRIRTRPPRLPRPRPRPCSHPRP | 0.13 |
| RRIRNRPPRLPRPRPRPMNVPRP | -0.00101 |
| RRIRERPPRLPRPRPRPHHRPRP | -0.145 |
| RRIRRRPPRLPRPRPRPEKSPRP | 0.0868 |
| RRIRRRPPRLPRPRPRPIVNPRP | -0.205 |
| RRIRKRPPRLPRPRPRPYQTPRP | 0.0193 |
| RRIRDRPPRLPRPRPRPGHYPRP | 0.0149 |
| RRIRYRPPRLPRPRPRPLWNPRP | -0.471 |
| RRIRMRPPRLPRPRPRPKINPRP | -0.194 |
| RRIRWRPPRLPRPRPRPVWTPRP | 0.162 |
| RRIRVRPPRLPRPRPRPARGPRP | 0.681 |
| RRIRNRPPRLPRPRPRPAFWPRP | 0.0558 |
| RRIRYRPPRLPRPRPRPHMMPRP | -1.6 |
| RRIRTRPPRLPRPRPRPVYLPRP | -1.16 |
| RRIRPRPPRLPRPRPRPMCCPRP | -0.0731 |
| RRIRFRPPRLPRPRPRPQCMPRP | 0.000372 |
| RRIRERPPRLPRPRPRPRWGPRP | 0.239 |
| RRIRKRPPRLPRPRPRPLRCPRP | 0.35 |
| RRIRMRPPRLPRPRPRPYFWPRP | -0.13 |

| Sequence | shrunken log2 fold change |
| --- | --- |
| RRIRSRPPRLPRPRPRPSTPPRP | -0.0374 |
| RRIRVRPPRLPRPRPRPSAWPRP | 0.804 |
| RRIRARPPRLPRPRPRPVPQPRP | 0.271 |
| RRIRYRPPRLPRPRPRPHPFPRP | -1.3 |
| RRIRFRPPRLPRPRPRPVNVPRP | -0.404 |
| RRIRERPPRLPRPRPRPEKGPRP | -0.0493 |
| RRIRCRPPRLPRPRPRPILFPRP | -0.405 |
| RRIRCRPPRLPRPRPRPFCAPRP | -0.00432 |
| RRIRTRPPRLPRPRPRPRYQPRP | -0.0799 |
| RRIRMRPPRLPRPRPRPAWWPRP | 0.879 |
| RRIRSRPPRLPRPRPRPYVKPRP | -0.351 |
| RRIRKRPPRLPRPRPRPLCPPRP | -0.145 |
| RRIRYRPPRLPRPRPRPTQMPRP | -0.213 |
| RRIRWRPPRLPRPRPRPDCKPRP | -0.0137 |
| RRIRGRPPRLPRPRPRPKEQPRP | 0.0833 |
| RRIRERPPRLPRPRPRPELQPRP | -0.0137 |
| RRIRDRPPRLPRPRPRPFQIPRP | 0.0155 |
| RRIRARPPRLPRPRPRPWKGPRP | 0.142 |
| RRIRQRPPRLPRPRPRPICMPRP | -0.0553 |
| RRIRERPPRLPRPRPRPITNPRP | -0.409 |
| RRIRYRPPRLPRPRPRPFNGPRP | -0.0276 |
| RRIRWRPPRLPRPRPRPQHMPRP | -0.459 |
| RRIRHRPPRLPRPRPRPAASPRP | 0.144 |
| RRIRYRPPRLPRPRPRPSTVPRP | -0.0902 |
| RRIRSRPPRLPRPRPRPLARPRP | 0.0314 |

| Sequence | shrunken log2 fold change |
| --- | --- |
| RRIRNRPPRLPRPRPRPVGHPRP | -0.128 |
| RRIRGRPPRLPRPRPRPPHHPRP | 0.537 |
| RRIRSRPPRLPRPRPRPVCAPRP | 0.386 |
| RRIRERPPRLPRPRPRPKVIPRP | -0.0206 |
| RRIRLRPPRLPRPRPRPTTVPRP | -0.175 |
| RRIRRRPPRLPRPRPRPCTAPRP | 0.866 |
| RRIRDRPPRLPRPRPRPFMGPRP | -0.27 |
| RRIRIRPPRLPRPRPRPSNRPRP | -0.139 |
| RRIRGRPPRLPRPRPRPECSPRP | 1.2 |
| RRIRYRPPRLPRPRPRPDVDPRP | -0.0562 |
| RRIRARPPRLPRPRPRPSTAPRP | 0.482 |
| RRIRKRPPRLPRPRPRPKLMPRP | 0.267 |
| RRIRARPPRLPRPRPRPENNPRP | 0.263 |
| RRIRRRPPRLPRPRPRPKMWPRP | 0.216 |
| RRIRNRPPRLPRPRPRPIEIPRP | 0.0194 |
| RRIRGRPPRLPRPRPRPLKHPRP | 0.0581 |
| RRIRMRPPRLPRPRPRPFFYPRP | -0.123 |
| RRIRARPPRLPRPRPRPVYPPRP | 0.0412 |
| RRIRHRPPRLPRPRPRPSHTPRP | -0.248 |
| RRIRNRPPRLPRPRPRPVLMPRP | -0.14 |
| RRIRCRPPRLPRPRPRPRMDPRP | -0.0539 |
| RRIRMRPPRLPRPRPRPDDVPRP | -0.00192 |
| RRIRGRPPRLPRPRPRPEHKPRP | 0.464 |
| RRIRVRPPRLPRPRPRPKPQPRP | 0.719 |
| RRIRRRPPRLPRPRPRPQVIPRP | -0.0307 |

| Sequence | shrunken log2 fold change |
| --- | --- |
| RRIRMRPPRLPRPRPRPTGQPRP | 0.636 |
| RRIRERPPRLPRPRPRPWQVPRP | 0.0371 |
| RRIRRRPPRLPRPRPRPCNAPRP | -0.105 |
| RRIRIRPPRLPRPRPRPLVCPRP | -0.346 |
| RRIRYRPPRLPRPRPRPEAHPRP | -0.281 |
| RRIRVRPPRLPRPRPRPDAFPRP | 0.203 |
| RRIRVRPPRLPRPRPRPFVGPRP | -0.0757 |
| RRIRKRPPRLPRPRPRPRVYPRP | 0.307 |
| RRIRFRPPRLPRPRPRPTWYPRP | -0.0222 |
| RRIRIRPPRLPRPRPRPMEEPRP | -0.00798 |
| RRIRHRPPRLPRPRPRPYEDPRP | -0.336 |
| RRIRGRPPRLPRPRPRPKVNPRP | 0.236 |
| RRIRYRPPRLPRPRPRPQMDPRP | -0.801 |
| RRIRHRPPRLPRPRPRPKICPRP | 0.0596 |
| RRIRVRPPRLPRPRPRPTSSPRP | -0.0575 |
| RRIRNRPPRLPRPRPRPTCDPRP | 0.0801 |
| RRIRHRPPRLPRPRPRPTTQPRP | -0.0335 |
| RRIRKRPPRLPRPRPRPALRPRP | 0.455 |
| RRIRFRPPRLPRPRPRPCHIPRP | -0.11 |
| RRIRFRPPRLPRPRPRPIPEPRP | 0.236 |
| RRIRRRPPRLPRPRPRPDYDPRP | -0.0449 |
| RRIRNRPPRLPRPRPRPCIHPRP | -0.355 |
| RRIRDRPPRLPRPRPRPTWDPRP | 0.629 |
| RRIRSRPPRLPRPRPRPFFRPRP | -0.0536 |
| RRIRARPPRLPRPRPRPKYGPRP | -0.0411 |

Reference: the supplement of paper PMC9112550, “Optimization of the antimicrobial peptide Bac7 by deep mutational scanning” (BMC Biology, 2022)
